According to EP3244212A1:

Experiments:
[1] = target: serum sIgE of the patients of the ELISA inhibition study (Example 3) (human); assay: ELISA inhibition: serum pre-incubated with soluble Ara h 2 (0.1, 1, 10 ug/ml); immobilised competitor Ara h 7.0201
[2] = target: serum sIgE of the patients of the ELISA inhibition study (Example 3) (human); assay: ELISA inhibition: serum pre-incubated with soluble Ara h 2 (0.1, 1, 10 ug/ml); immobilised competitor Ara h 6

- % inhibition (median over sera) [1]: 16%
- % inhibition (median over sera) [2]: 43%
B1: Ara h 2 isotype 2.0201, recombinant His6 fusion protein (protein)
chain: MSHHHHHHIEGRTMRQQWELQGDRRCQSQLERANLRPCEQHLMQKIQRDEDSYGRDPYSPSQDPYSPSQDPDRRDPYSPSPYDRRGAGSSQHQERCCNELNEFENNQRCMCEALQQIMENQSDRLQGRQQEQQFKRELRNLPQQCGLRAPQRCDLEVESGGRDRY
